{"source": "paper doi:10.1101/369462", "molecular_target": "truncated M1 C-terminal domain ([change], aa 165-252) (influenza/A/FPV/Rostock/34) (UniProt P03487)", "assay": "raster image correlation spectroscopy"}
{"substance": "truncated M1 C-terminal domain ([change], aa 165-252) (from UniProt P03487 165-252) (domain or fragment)", "values": [{"measurement": "brightness of M1 wt relative to M1-C (fold)", "result": 4.3, "unit": "fold"}]}
